Test results published in article PMC8928223, “The Collagen Receptor Discoidin Domain Receptor 1b Enhances Integrin β1-Mediated Cell Migration by Interacting With Talin and Promoting Rac1 Activation” (Frontiers in Cell and Developmental Biology, 2022).

T1: talin head domain (THD, a. a. 1-433), HIS-tagged (UniProt P26039 1-433)
T1 chain: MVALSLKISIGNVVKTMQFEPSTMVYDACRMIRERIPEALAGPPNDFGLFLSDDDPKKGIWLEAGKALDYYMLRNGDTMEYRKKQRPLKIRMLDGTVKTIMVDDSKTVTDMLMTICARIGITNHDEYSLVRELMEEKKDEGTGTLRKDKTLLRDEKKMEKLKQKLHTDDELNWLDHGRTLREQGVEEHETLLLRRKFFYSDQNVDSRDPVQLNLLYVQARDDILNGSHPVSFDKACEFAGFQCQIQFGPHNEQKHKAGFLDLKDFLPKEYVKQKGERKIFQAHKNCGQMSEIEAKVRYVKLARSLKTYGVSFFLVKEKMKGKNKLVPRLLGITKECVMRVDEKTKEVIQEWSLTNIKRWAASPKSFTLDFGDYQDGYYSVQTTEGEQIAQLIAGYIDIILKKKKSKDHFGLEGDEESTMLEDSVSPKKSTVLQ


Tests used:
[1] = target: T1, talin head domain (THD, a. a. 1-433), …; experiment: ELISA
[2] = target: T2, DDR1b-Turbo containing a Flag tag (human, UniProt Q08345-1 19-913); experiment: proximity labelling; BioID with turbo-Flag fused to DDR1 in HEK cells plated on collagen I (30 µg/ml) for 1-3 h with 50 µM biotin; streptavidin-agarose pull-down of the lysate and Western blot; details: partners not purified
T2 construct: Discoidin domain receptor 1, isoform DDR1b, human, fused to the biotin ligase turbo-Flag as bait for BioID; construct described in Borza et al., 2021; source: HEK 293, stably transfected, in live cells and lysate

Binder	Kd [1]	fold increase in biotinylated BCR against DDR1a-expressing cells [2]
DDR1a cytoplasmic domain (domain or fragment) WRLHWRRLLSKAERRVLEEELTVHLSVPGDTILINNRPGPREPPPYQEPRPRGNPPHSAPCVPNGSAYSGDYMEPEKPGAPLLPPPPQNSVPHYAEADIVTLQGVTGGNTYAVPALPPGAVGDGPPRVDFPRSRLRFKEKLGEGQFGEVHLCEVDSPQDLVSLDFPLNVRKGHPLLVAVKILRPDATKNARNDFLKEVKIMSRLKDPNIIRLLGVCVQDDPLCMITDYMENGDLNQFLSAHQLEDKAAEGAPGDGQAAQGPTISYPMLLHVAAQIASGMRYLATLNFVHRDLATRNCLVGENFTIKIADFGMSRNLYAGDYYRVQGRAVLPIRWMAWECILMGKFTTASDVWAFGVTLWEVLMLCRAQPFGQLTDEQVIENAGEFFRDQGRQVYLSRPPACPQGLYELMLRCWSRESEQRPPFSQLHRFLAEDALNTV	220 nM	–
DDR1b cytoplasmic domain (domain or fragment) WRLHWRRLLSKAERRVLEEELTVHLSVPGDTILINNRPGPREPPPYQEPRPRGNPPHSAPCVPNGSALLLSNPAYRLLLATYARPPRGPGPPTPAWAKPTNTQAYSGDYMEPEKPGAPLLPPPPQNSVPHYAEADIVTLQGVTGGNTYAVPALPPGAVGDGPPRVDFPRSRLRFKEKLGEGQFGEVHLCEVDSPQDLVSLDFPLNVRKGHPLLVAVKILRPDATKNARNDFLKEVKIMSRLKDPNIIRLLGVCVQDDPLCMITDYMENGDLNQFLSAHQLEDKAAEGAPGDGQAAQGPTISYPMLLHVAAQIASGMRYLATLNFVHRDLATRNCLVGENFTIKIADFGMSRNLYAGDYYRVQGRAVLPIRWMAWECILMGKFTTASDVWAFGVTLWEVLMLCRAQPFGQLTDEQVIENAGEFFRDQGRQVYLSRPPACPQGLYELMLRCWSRESEQRPPFSQLHRFLAEDALNTV	96.5 nM	–
Breakpoint cluster region protein (BCR) (natural protein, human (endogenous in HEK 293), UniProt P11274 1-1271, looked up, biotinylated by the turbo ligase in cells, Breakpoint cluster region protein, in HEK 293 cells, detected with an anti-BCR antibody after streptavidin pull-down; source: endogenous, HEK 293 cells, in lysate) MVDPVGFAEAWKAQFPDSEPPRMELRSVGDIEQELERCKASIRRLEQEVNQERFRMIYLQTLLAKEKKSYDRQRWGFRRAAQAPDGASEPRASASRPQPAPADGADPPPAEEPEARPDGEGSPGKARPGTARRPGAAASGERDDRGPPASVAALRSNFERIRKGHGQPGADAEKPFYVNVEFHHERGLVKVNDKEVSDRISSLGSQAMQMERKKSQHGAGSSVGDASRPPYRGRSSESSCGVDGDYEDAELNPRFLKDNLIDANGGSRPPWPPLEYQPYQSIYVGGMMEGEGKGPLLRSQSTSEQEKRLTWPRRSYSPRSFEDCGGGYTPDCSSNENLTSSEEDFSSGQSSRVSPSPTTYRMFRDKSRSPSQNSQQSFDSSSPPTPQCHKRHRHCPVVVSEATIVGVRKTGQIWPNDGEGAFHGDADGSFGTPPGYGCAADRAEEQRRHQDGLPYIDDSPSSSPHLSSKGRGSRDALVSGALESTKASELDLEKGLEMRKWVLSGILASEETYLSHLEALLLPMKPLKAAATTSQPVLTSQQIETIFFKVPELYEIHKEFYDGLFPRVQQWSHQQRVGDLFQKLASQLGVYRAFVDNYGVAMEMAEKCCQANAQFAEISENLRARSNKDAKDPTTKNSLETLLYKPVDRVTRSTLVLHDLLKHTPASHPDHPLLQDALRISQNFLSSINEEITPRRQSMTVKKGEHRQLLKDSFMVELVEGARKLRHVFLFTDLLLCTKLKKQSGGKTQQYDCKWYIPLTDLSFQMVDELEAVPNIPLVPDEELDALKIKISQIKNDIQREKRANKGSKATERLKKKLSEQESLLLLMSPSMAFRVHSRNGKSYTFLISSDYERAEWRENIREQQKKCFRSFSLTSVELQMLTNSCVKLQTVHSIPLTINKEDDESPGLYGFLNVIVHSATGFKQSSNLYCTLEVDSFGYFVNKAKTRVYRDTAEPNWNEEFEIELEGSQTLRILCYEKCYNKTKIPKEDGESTDRLMGKGQVQLDPQALQDRDWQRTVIAMNGIEVKLSVKFNSREFSLKRMPSRKQTGVFGVKIAVVTKRERSKVPYIVRQCVEEIERRGMEEVGIYRVSGVATDIQALKAAFDVNNKDVSVMMSEMDVNAIAGTLKLYFRELPEPLFTDEFYPNFAEGIALSDPVAKESCMLNLLLSLPEANLLTFLFLLDHLKRVAEKEAVNKMSLHNLATVFGPTLLRPSEKESKLPANPSQPITMTDSWSLEVMSQVQVLLYFLQLEAIPAPDSKRQSILFSTEV	–	2.92 ± 1.42 fold
